Measurements published in patent US10752881B2, “Trans-differentiation of differentiation cells” (Helmholtz Zentrum München-Deutsches Forschungszentrum für …, priority 2014, dated 2020).
Residues, ends and D or L forms follow the SMILES beside them. *: point of attachment. Cbz = O=C(OCc1ccccc1)*; CH2F = FC*

Assays:
[1] = system: postnatal mouse astrocytes; details: for effect on reprogramming efficiency of astrocytes: Ascl1-transfected, 4 days of calcitriol treatment
Experimental: (C) Histogram of astroglial cultures transfected with Ascl1-RFP-encoding plasmid alone or in combination with WT-Bcl-2, EE-Bcl-2 or A-Bcl-2 at 4 days post-transfection (DPT). The number of transfected cells (RFP+) at final time point (4 DPT) was normalized to the initial number of transfected cells (1 DPT) to calculate the % of survival. The % of neuronal conversion was analysed by β-III-tubulin immunostaining and normalized to total number of RFP+ cells at the end of the experiment. Error bars indicate ±SD. *p<0.05, **p<0.01; ANOVA Tukeys post-test.
A, Quantifications at 5 DPT (days post-transfection) showing the effect of the inhibitor of ferroptosis, α-toc and the inhibitor of apoptosis, ZVAD in survival/efficiency of conversion of astroglial cells transfected with Ascl1-RFP.
C, Percentage of neurons in astroglial cells transfected with Ascl1-encoding plasmid alone or in combination with Bcl-2 and/or Vdr at 5 DPT after 4 days of treatment with calcitriol or untreated.
After removal of the meninges, grey matter tissue was dissected from P5-P7 cerebral cortex of C57BL/6J mice and dissociated mechanically. Subsequently, cells were centrifuged for 5 min at 1000 rpm, re-suspended, and plated in medium consisting of DMEM/F12 (Gibco), 3.5 mM glucose (Sigma), 10% fetal calf serum (Gibco), 5% horse serum (Gibco), penicillin/streptomycin (Gibco) and supplemented with B27 (Gibco), 10 ng/mL epidermal growth factor (EGF, Roche) and 10 ng/mL fibroblast growth factor 2 (FGF2, Roche). After one week expansion cells were harvested using trypsin/EDTA (Gibco) and plated onto poly-D-lysine (Sigma-Aldrich) coated glass coverslips in 24-well plates (BD Biosciences) or directly onto the plastic for time lapse experiments at a density of 60,000 cells per well in the same medium. After 24 hours cells were either transfected with plasmid or infected with retroviral vectors and after further 24 hours medium was changed to differentiation medium composed of DMEM/F12 high glucose with GlutaMAX, penicillin/streptomycin and B27 supplement (Gibco) to allow neuronal differentiation.
For transfection DNA-liposome complexes were prepared in Optimem medium (Invitrogen) using the retroviral plasmids described below and Lipofectamine 2000 (Invitrogen). Astrocyte cultures were exposed to DNA-liposome complexes at a concentration of 0.5 μg DNA per 400 μl of Optimem medium for 4 hours and cultured after that in the differentiation medium as above.
Cells were fixed in 4% paraformaldehyde (PFA) in phosphate-buffered saline (PBS) for 10 min at room temperature (RT), washed in PBS and pretreated in 0.5% Triton X-100 in PBS for 30 min, followed by incubation in 2% BSA and 0.5% Triton X-100 in PBS for 30 min. Primary antibodies were incubated on specimen overnight at 4° C. in 2% BSA, 0.5% Triton X-100 in PBS.

adult human fibroblasts = test: Neuronal reprogramming of adult human fibroblasts; type: cell-based; details: for effect on reprogramming efficiency of human fibroblasts: combination Ascl1/Bcl-2/Vdr, 60 DPI
Excerpt: To determine whether Bcl-2 would also efficiently enhance reprogramming into neurons in cells from other species, we used fibroblasts obtained from a person that were expanded and transduced as described above with the retroviral vector encoding Ascl1 and RFP alone or in combination with a second vector encoding the human BCL-2 (hBCL-2) and the reporter GFP.
Primary cultures of human skin fibroblasts were established from 3 mm diameter full thickness punch biopsy specimens which were mechanically dissociated before plating. […] For reprogramming experiments cells were plated on coverslips in 24-well plates as described above for astrocytes and 48 hours after infection medium was changed to DMEM high glucose with GlutaMAX and 1% fetal calf serum, penicillin/streptomycin and B27 supplement (Gibco). During the reprogramming process, medium was replaced by conditioned-astrocyte medium every 3 days. Conditioned-astrocyte medium is obtained by growing astroglial culture with differentiation medium (see Cell cultures of astroglia from the postnatal mouse cerebral cortex above) during minimum of 2 days. Then the medium is collected from astrocytes and used for reprogramming of the human cells.
For the expression of neurogenic transcription factors we used self-inactivating retroviral vectors containing the actin promoter with cytomegalovirus enhancer (pCAG) driving the expression of the gene of interest (flag/myc-Ascl1, flag-Neurog2, Bcl-2 or Dlx-2) linked to a fluorescent reporter by internal ribosomal entry site (IRES) as previously described (Heinrich et al., 2011). The mouse version of Bcl-2 cDNA was obtained from Source BioScience (IRAVp968H01145D; pCMV-SPORT6.1-Bcl-2) and the human cDNA version (h-Bcl-2) from addgene (Plasmid number 8793; pMIG-Bcl-2-IRES-GFP) to generate RV-pCAG-flag/myc-Ascl1-IRES-Bcl-2, RV-pCAG-flag-Neurog2-IRES-Bcl-2 or RV-pCAG-Bcl-2-IRES-GFP, which encodes for both Bcl-2 and the reporter GFP. The Bcl-2 mutants A-Bcl-2 and EE-Bcl-2 were produced by directed mutagenesis with the oligos 5′-[…]-3′ (SEQ ID NO: 18) (and complementary (SEQ ID NO: 20)) and 5′-[…]-3′ (SEQ ID NO: 19) (and complementary (SEQ ID NO: 21)) respectively, to generate the vectors pCMV-SPORT6.1-A-Bcl-2, RV-pCAG-Ascl1-IRES-A-Bcl-2 and RV-pCAG-Neurog2-IRES-A-Bcl-2 and the corresponding EE-Bcl-2 versions. Mutations were verified by sequencing. The murine Vdr was obtained from Sino Biological (MG51106-G, Vector pGEM-T) and sub-cloned in the retroviral vector to generate RV-pCAG-Vdr-IRES-GFP.

reactive glial cells = test: In vivo conversion of reactive glial cells into neurons after stab wound injury; details: for acquisition of neuronal marker NeuN by singly transduced cells: single GFP+ or RFP+ cells
Excerpt: A, Experimental protocol for stab wound injury and subsequent infection with retroviral vectors (Neurog2/RFP and Bcl-2/GFP) or treatment with calcitriol, analysed at 10 or 20 days post-infection (DPI).
To highlight the relevance of our findings we next tested the efficiency of the methods described above in vivo. For that, we performed stab wound injury followed by injection of retroviral vectors encoding Neurog2-IRES-RFP and Bcl-2-IRES-GFP next to the injury site (FIG. 7A) using a previously described protocol (see Heinrich et al., 2014). Control infected cells were glial in nature, mostly NG2+ cells of the oligodendrocyte lineage or S100b/GFAP+ astrocytes as described before (Heinrich et al., 2014). […] To examine whether key metabolic constraints observed to be important for fate conversion in vitro were also relevant in vivo we tested activation of the Vitamin D receptor pathway by the ligand calcitriol.
Operations were performed in accordance with the policies of the state of Bavaria under license number 55.2-1-54-2532-171-11. A unilateral stab wound lesion (1 mm long, 0.6 mm deep from the dura mater) was performed in the right neocortex with a 19 gauge-thick lancet without injuring the cortical white matter, as previously described (Sirko et al. 2013; Simon et al. 2011). Three days later, 0.5-1 μl of retroviral suspension (Neurog2-IRES-RFP and Bcl-2-IRES-GFP, 1:1) was injected in the site of the lesion with a glass capillary connected to a microinjector (Nanoliter2000+Sys-Micro4, World Precision Instrument), at a rate of 30-60 nl/min. The needle was retracted 5 minutes after completing the injection. When indicated in the text, 200 μl of Calcitriol (Tocris) diluted in corn oil (final concentration of 1 ng/μl) were administered through oral gavage 2 days after the retroviral injection. The dosage was determined according with previous publications (Nashold et al. 2013).
Animals were anesthetized and transcardially perfused with 1× phosphate-buffered saline (PBS), followed by 4% paraformaldehyde (PFA) in PBS. Brains were postfixed for 2 hours, washed twice with PBS and embedded in 4% agarose/water. Finally, 60 μm-thick coronal sections were cut using a vibrating microtome (Leica).

[2] = system: astroglia isolated from mouse cerebral cortex at postnatal day 5-7; test: Continuous single cell live imaging of Ascl1-mediated astrocyte-to-neuron reprogramming; type: cell-based; details: for increase of proportion of cells successfully completing reprogramming into neurons: Ascl1 + Bcl-2 vs Ascl1 only
Excerpt: In order to identify the cellular mechanisms of neuronal reprogramming, astroglia isolated from mouse cerebral cortex at postnatal day 5-7 were transfected with an Ascl1-encoding vector thereby targeting non-proliferating cells in addition to those transduced by approaches such as MLV-based retroviral vectors that require proliferation and break-down of the nuclear envelope for successful gene transfer. Our transfection protocol (Heinrich et al., PLoS biology 8, e1000373 (2010); Heinrich et al., Nature protocols 6, 214-228 (2011)) enables cells labelled by red fluorescent protein (RFP) 24 hours after transfection to be subject to continuous live imaging for the main phase of reprogramming (i.e. 6 days). Glial and neuronal cells were identified by their morphology, with the former displaying a flat astrocyte-like morphology and the latter with a round cell soma and thin processes (monopolar, bipolar and multipolar) at least 3× longer than the cell soma. This morphology-based classification was confirmed by post-imaging immunostaining (FIG. 1A). Few of the cells transduced with Ascl1 divided during the 150 hours observation (15%: FIG. 1E). Thus, the vast majority of direct neuronal reprogramming occurs in the absence of proliferation in this system.
Time-lapse video microscopy was performed with a cell observer (Zeiss) at a constant temperature of 37° C. and 8% CO2. Phase contrast images were acquired every 5 minutes, and fluorescence pictures every 4-6 hours for 6.5-7.5 days using a 10× phase contrast objective (Zeiss), and an AxioCamHRm camera with a self-written VBA module remote controlling Zeiss AxioVision 4.7 software (Rieger and Schroeder, Journal of cellular biochemistry 108, 343-352 (2009)). Movies were assembled using Image J 1.42q (National Institute of Health, USA) software and are played at speed of 3 frames per second.

[3] = system: Mouse embryonic fibroblasts (MEFs); test: Fibroblast-to-neuron reprogramming of MEFs with retroviral vectors, β-III-tubulin immunostaining; type: cell-based
vitamin d receptor (vdr) = test: Vdr expression during neuronal reprogramming (immunostaining); type: cell-based; details: during neuronal reprogramming with Ascl1, 5 DPI
Experimental: A, Percentage of cells expressing Vdr in cultures infected with Ascl1-encoding vector alone or Ascl1+A-Bcl-2 at 5 DPI. Vdr presence was determined by immunostaining (B). Note that Bcl-2 increases the proportion of cells expressing endogenous Vdr during neuronal reprogramming.

[4] = astroglial cells transfected with Ascl1-RFP, 5 DPT

For `COC(=O)C[C@H](NC(=O)[C@H](C)NC(=O)[C@@H](NC(=O)OCc1ccccc1)C(C)C)C(=O)CF` [ZVAD] (Cbz-Val-Ala-Asp(OMe)-CH2F), the “effect on efficiency of conversion (reprogramming efficiency)” value [1, 4] was “not conversion efficiency”.

For `C=C1/C(=C\C=C2/CCC[C@]3(C)[C@@H]([C@H](C)CCCC(C)(C)O)CC[C@@H]23)C[C@@H](O)C[C@@H]1O` [calcitriol, reference compound], the “effect on reprogramming efficiency of human fibroblasts” value (adult human fibroblasts) was “enhance reprogramming efficiency”, the “effect on morphology and maturation state of the neurons” value (reactive glial cells; Neurog2 + Bcl-2, calcitriol 200 ng orally, 23 days after viral infection) was “profoundly improved morphology and maturation state of the neurons” and the “proportion of NeuN+ neurons of all co-transduced cells” value (reactive glial cells; Neurog2 + Bcl-2 co-expression, calcitriol 200 ng orally 2 days after viral injection, 10 DPI) was ~90%. For the same molecule, the “effect on reprogramming efficiency of astrocytes” value ([1]; 5 DPT) was “enhance reprogramming efficiency”.

For `Cc1c(C)c2c(c(C)c1O)CC[C@@](C)(CCC[C@H](C)CCC[C@H](C)CCCC(C)C)O2` [α-tocopherol], the “effect on efficiency of conversion (reprogramming efficiency)” value [1, 4] was “increase reprogramming efficiency” and the “effect on survival / cell death” value [1, 4] was “reduces cell death”.

“hBcl-2: human BCL-2 encoded by a retroviral vector with the reporter GFP” was tested, and the “increase of β-III-tubulin+ cells compared to Ascl1/RFP expressing cells” value (adult human fibroblasts; co-transduced with Ascl1) was 32 × fold and the “co-infected cells (RFP and GFP) that were β-III-tubulin+” value (adult human fibroblasts; co-transduced with Ascl1, fibroblasts from a person) was “up to 70%”.

B1: Bcl-2: mouse Bcl-2 cDNA expressed from plasmid or retroviral vector; anti-apoptotic member of the Bcl-2 family (protein, listed as Mus musculus)
chain: MAQAGRTGYDNREIVMKYIHYKLSQRGYEWDAGDADAAPLGAAPTPGIFSFQPESNPMPAVHRDMAARTSPLRPLVATAGPALSPVPPVVHLTLRRAGDDFSRRYRRDFAEMSSQLHLTPFTARGRFATVVEELFRDGVNWGRIVAFFEFGGVMCVESVNREMSPLVDNIALWMTEYLNRHLHTWIQDNGGWDAFVELYGPSMRPLFDFSWLSLKTLLSLALVGACITLGAYLGHK
In the case of B1, the “fraction of cells with acquired neuronal morphology dying” value ([2]; Ascl1 + Bcl-2) is reported as “about ⅓”, the “survival rate of remaining glial cells” value ([2]; Ascl1 + Bcl-2) is reported as 10% and the “survival rate of successfully converted cells” value ([2]; Ascl1 + Bcl-2) is reported as 2/3. The “effect on rate of proliferation during reprogramming” value ([2]; Ascl1 + Bcl-2, 150 h) was “did not affect the rate of proliferation during reprogramming”, the “effect on speed of astrocyte-to-neuron conversion” value ([2]; Ascl1 + Bcl-2, first 50-75 h of tracking) was “accelerated astrocyte-to-neuron conversion” and the “increase of proportion of cells successfully completing reprogramming into neurons” value ([2]; at 50 h of tracking) was ~8 fold. The “increase of proportion of cells successfully completing reprogramming into neurons” value ([2]; end of the tracking time period) was “over 3 fold”, the “effect on survival of cells during neuronal conversion” value ([2]; co-transduction with Ascl1, 150 hours imaging) was “robustly enhanced survival of cells during neuronal conversion” and the “neuronal conversion in MEFs (β-III-tubulin)” value ([3]; Ascl1-based retroviral vectors, 14 days after infection) was 42.8%. The “effect on expression of vdr” value (vitamin d receptor (vdr)) was “induces expression of vdr”, the “neuronal conversion of co-transduced cells (GFP+/RFP+)” value (reactive glial cells; Neurog2-IRES-RFP and Bcl-2-IRES-GFP co-transduced, 10 DPI) was “many co-transduced cells (GFP+/RFP+) exhibited elongated neuronal-shape morphology and were immunoreactive for NeuN” and the “acquisition of neuronal marker NeuN by singly transduced cells” value (reactive glial cells; 10 DPI) was “rarely acquired the neuronal marker NeuN”. The “effect on total number of surviving cells and reprogrammed neurons” value ([1]; co-transfected with Ascl1/RFP, 6 and 12 days) was “distinctly increased the total number of surviving cells and reprogrammed neurons”.

B2: Neurog2: neurogenic transcription factor expressed from retroviral vector with RFP (protein, UniProt P70447 1-263, looked up)
Neurogenin-2: MFVKSETLELKEEEEVLMLLGSASPASATLTPMSSSADEEEDEELRRPGSARGQRGAEAEQGVQGSPASGAGGCRPGRLLGLMHECKRRPSRSRAVSRGAKTAETVQRIKKTRRLKANNRERNRMHNLNAALDALREVLPTFPEDAKLTKIETLRFAHNYIWALTETLRLADHCAGAGGLQGALFTEAVLLSPGAALGASGDSPSPPSSWSCTNSPASSSNSTSPYSCTLSPASPGSDVDYWQPPPPEKHRYAPHLPLARDCI
For B2, the “proportion of neurons induced from MEFs, of all infected cells” value ([3]; Neurog2-based retroviral vectors, 15 days after infection) was 10% and the “acquisition of neuronal marker NeuN by singly transduced cells” value (reactive glial cells; 10 DPI) was “rarely acquired the neuronal marker NeuN”.

B3: Vdr: murine vitamin D receptor over-expressed from retroviral vector RV-pCAG-Vdr-IRES-GFP (protein, listed as Mus musculus)
chain: MEAMAASTSLPDPGDFDRNVPRICGVCGDRATGFHFNAMTCEGCKGFFRRSMKRKALFTCPFNGDCRITKDNRRHCQACRLKRCVDIGMMKEFILTDEEVQRKREMIMKRKEEEALKDSLRPKLSEEQQHIIAILLDAHHKTYDPTYADFRDFRPPIRADVSTGSYSPRPTLSFSGDSSSNSDLYTPSLDMMEPASFSTMDLNEEGSDDPSVTLDLSPLSMLPHLADLVSYSIQKVIGFAKMIPGFRDLTSDDQIVLLKSSAIEVIMLRSNQSFTLDDMSWDCGSQDYKYDITDVSRAGHTLELIEPLIKFQVGLKKLNLHEEEHVLLMAICIVSPDRPGVQDAKLVEAIQDRLSNTLQTYIRCRHPPPGSHQLYAKMIQKLADLRSLNEEHSKQYRSLSFQPENSMKLTPLVLEVFGNEIS
For B3, the “effect on reprogramming efficiency of human fibroblasts” value (adult human fibroblasts) was “enhance reprogramming efficiency” and the “effect on reprogramming efficiency of astrocytes” value ([1]; 5 DPT) was “enhance reprogramming efficiency”.
